The text below walks through data of patent publication US20240209080A1, “FOLR1 BINDING AGENTS, CONJUGATES THEREOF AND METHODS OF USING THE SAME” (PROFOUNDBIO US CO., priority 2021, published 2024).

This assay deals with Hela cells. Description: Flow cytometry binding to Hela cells. Particulars: transfection supernatant, FIG. 1. The method, then: The binding activity of the antibodies to Hela cells (ATCC® CCL-2, provided by COBIOER) and to RPTEC/TERT1 cells (ATCC® CRL-4031, provided by COBIOER) was tested by flow cytometry using the transfection supernatants. Briefly, target cells were digested with 0.02% EDTA-2Na, centrifuged at 1500 rpm for 3 mins, and resuspended with PBS. After counting, the cells were added to a 1.5 ml centrifuge tube with 1×10^6 cells per tube, centrifuged at 1500 rpm for 5 minutes, and the supernatant was discarded. Then all the operations were carried out on an ice bath. 100 μL of transfection supernatant was added to each 1.5 ml centrifuge tube. Blank cells, blank cells plus secondary antibody, medium and HEK293 supernatant were set up as the controls. The reaction was performed on an ice bath for 1 hour. Then the cells were pelleted and washed twice with PBS. The secondary antibody, goat anti-Human IgG (PE, abcam, ab98596), was diluted (1:200) and added using 100 μL per tube. The reaction was performed on an ice bath for 1 hour in the dark. The cells were pelleted again and washed twice with PBS, resuspended in 300 μL PBS, and FL2 fluorescence readings were measured by cytometry. The results were analyzed by FlowJoTM10 software.
Anti-FOLR1 antibody binding to Hela and RPTEC/TERT1 cells was tested by FACS. The study was carried out as described above. […]

B1: F40: fully human anti-FOLR1 antibody (IgG1), VH SEQ ID NO:9, VL SEQ ID NO:10 (antibody, V domains shown)
VH: EVQLLESGGGVVQPGRSLRLSCAASGFTFSSYAMHWVRQAPGKGLEWVAVISYDGSNKYYADSVKGRFIISRDNSKNTVYLQMNSLRAEDTAVYYCARPTYVFTYTGSSFDYWGQGTQVTVSS
VL: DIQVTQSPSSLSASLGDTVSITCRASRGLTDSVAWYQQKPGQAPKLLIYAASTLQSGVPSRFGGSGSGSYFTLTITSLQPEDVATYYCQNYKSAPWTFGQGTKVEIK
modifications: Synthetic F40 VH amino acid sequence; Synthetic F40 VL amino acid sequence
Take B1: the “Hela cell binding (in words)” value is reported as “weakly positive”.
